In one data set the target is T1, T-STAR STAR (UniProt O75525 1-183).
T1 sequence: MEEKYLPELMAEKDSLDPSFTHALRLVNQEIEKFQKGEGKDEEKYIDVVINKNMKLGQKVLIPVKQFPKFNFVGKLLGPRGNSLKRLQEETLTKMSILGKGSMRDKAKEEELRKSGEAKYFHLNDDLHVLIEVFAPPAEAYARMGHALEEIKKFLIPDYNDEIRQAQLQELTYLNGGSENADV
As to the kind of experiment: X-ray crystallography; FP: 10 mM Tris pH 7, 100 mM NaCl, 0.1% beta-mercaptoethanol, 0.2 uM fluorescein-RNA, protein 0-200 uM, temperature not stated; NMR 303 K: Sam68 in 10 mM Tris pH.

The next data set deals with Sam68 STAR (UniProt Q07666 97-283). As to the kind of experiment: NMR chemical shift perturbation; FP: 10 mM Tris pH 7, 100 mM NaCl, 0.1% beta-mercaptoethanol, 0.2 uM fluorescein-RNA, protein 0-200 uM, temperature not stated; NMR 303 K: Sam68 in 10 mM Tris pH.

B1: AUUAAA (ssRNA)
RNA: AUUAAA
As to B1, the binding result in the data set with T-STAR STAR and in the data set with Sam68 STAR was “binds” throughout.

The values above are taken from publication PMC4735526 (Nature Communications, 2016).
